The source of these data is publication PMC11331121.

What all share (assay): SPR
(In SPR one partner is held on a chip, and binding of the other changes the refractive index at the surface.)

In assay [1] the target is H3K14ac peptide.
Assay [2] has as its target H3K9ac peptide.
Assay [3] addresses H4K5ac peptide.
In assay [4] the target is H4K8ac peptide.

B1: triple Tudor domains (3TD) of Drosophila Eggless/SetDB1, wild type (domain or fragment)
chain: SDYVHEVPPPGEIVRPPIQLGETYYAVKNKAIASWVSIKVIEFTESTAINGNTMKSYKIRYLNTPYQMIKTVTAKHIAYFEPPPVRLTIGTRVIAYFDGTTLSRGKDKGVVQSAFYPGIIAEPLKQANRYRYLIFYDDGYTQYVPHRDVRLVCQASEKVWEDVHAASRDFIQKYVEKYSVDRPMVQCTRGQSMTTESNGTWLYARVIDIDCSLVLMQFEGDKNHTEWIYRGSLRLGPVFRETQNNMNSSSAQQLRVP
In the case of B1, the Kd (as a rule, the free concentration of one partner at which half of the binding sites on the other are occupied at equilibrium, for simple one-to-one binding) in assay [1] stood at 339 µM; in assay [2], 823 µM; in assay [3] it was 925 µM; in assay [4] it was 654 µM.
